Results from patent US9012420B2, “Aptamer for chymase, and use thereof” (Ribomic Inc., priority 2009, dated 2015).

Columns and labels:
chymase (recombinant) [1] = biological target: T1, chymase (recombinant) (UniProt P23946 P23946:22-247); test: SPR; stronger than 30N; solution C; chymase preparation for SPR not specified; conditions: tags: SIGMA, expressed in yeast
T1 sequence: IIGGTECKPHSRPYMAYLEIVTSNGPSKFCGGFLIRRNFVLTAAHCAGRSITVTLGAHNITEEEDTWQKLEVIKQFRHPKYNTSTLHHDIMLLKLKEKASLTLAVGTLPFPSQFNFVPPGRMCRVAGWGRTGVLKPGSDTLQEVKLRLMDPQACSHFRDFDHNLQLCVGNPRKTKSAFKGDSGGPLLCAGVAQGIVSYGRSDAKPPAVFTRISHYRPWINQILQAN
Protocol: (§1) The binding activities against chymase of the nucleic acids shown by SEQ ID NO: 4-20 and 22-34 were determined by the surface plasmon resonance method using Biacore T100 (manufactured by GE Healthcare). The sensor chip used was the SA chip, which had streptavidin immobilized thereon. Bound thereto was about 1500 RU of a 16-nucleotide Poly dT with biotin bound to the 5' end thereof. […] 20 μL of chymase for analyte, prepared at 0.2 μM, was injected. Solution A was used as a running buffer.
The binding activities against chymase of the nucleic acids shown by SEQ ID NO: 38-48 were evaluated by the surface plasmon resonance method. In the evaluations for SEQ ID NO: 38-48, measurements were taken in the same manner as Example 1. Solution C was used as a running buffer.

chymase [2] = biological target: T2, chymase (Homo sapiens, UniProt P23946 P23946:22-247); test: inhibition; angiotensin I; recombinant 0.108; conditions: tags: human skin mast cell, Calbiochem
T2 sequence: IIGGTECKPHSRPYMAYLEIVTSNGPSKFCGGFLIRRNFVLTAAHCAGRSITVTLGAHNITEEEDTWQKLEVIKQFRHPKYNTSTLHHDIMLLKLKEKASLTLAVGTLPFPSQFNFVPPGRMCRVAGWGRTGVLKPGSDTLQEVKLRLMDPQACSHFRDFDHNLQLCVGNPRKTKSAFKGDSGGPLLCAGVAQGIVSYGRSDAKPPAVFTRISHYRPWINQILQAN
Protocol: (§2) The total volume of solution for an enzyme reaction in the assay was set to 50 μL, and the reaction was performed in solution C buffer. First, 0.3-0.75 ng of chymase (recombinant, (manufactured by SIGMA) or native (manufactured by Calbiochem)) was diluted with solution C to give 5 μL thereof. Here, the recombinant is chymase expressed by yeast, and the native is chymase purified from human skin mast cell. The nucleic acid was serially diluted with solution C at a concentration of 0.0027-2 μM to give 25 μL thereof. The chymase solution (5 μL) and the nucleic acid solution (25 μL) were mixed, and the mixture was incubated at 37° C. for 5 min. […] The whole mixture was centrifuged at 4° C., 14000 rpm for 10 min, and the supernatant (30 μL) was used for the next fluorescence induction reaction.
(§3) The above-mentioned supernatant (30 μL) was added to a 96 well plate (black, manufactured by Costar), a solution (15 μL) of 2% o-phthalaldehyde (manufactured by SIGMA) in methanol and 0.3M NaOH solution (170 μL) were added to each well, and the mixture was incubated at room temperature for 10 min. […] The plate was set on a microplate reader SpectraMax190 (manufactured by Molecular device) and the fluorescence intensity was measured at an excitation wavelength of 355 nm and a fluorescence wavelength of 460 nm.

chymase [3] = biological target: T2, chymase; test: inhibition; angiotensin I; recombinant 0.207; conditions: tags: human skin mast cell, Calbiochem
Protocol: as §2, §3

[4] = biological target: T3, chymase (native, human skin mast cell) (Homo sapiens, UniProt P23946 P23946:22-247); test: inhibition; angiotensin I substrate; recombinant 0.041 uM; conditions: tags: Calbiochem
T3 sequence: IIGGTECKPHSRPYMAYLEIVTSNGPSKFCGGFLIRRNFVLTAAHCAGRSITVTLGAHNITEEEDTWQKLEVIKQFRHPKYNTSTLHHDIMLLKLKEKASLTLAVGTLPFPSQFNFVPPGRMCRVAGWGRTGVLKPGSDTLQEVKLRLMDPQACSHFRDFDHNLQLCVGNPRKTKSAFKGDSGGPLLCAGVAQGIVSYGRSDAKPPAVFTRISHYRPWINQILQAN
Protocol: as §2, §3

chymase (recombinant) [5] = biological target: T1, chymase (recombinant); test: inhibition; SPR ++; conditions: tags: SIGMA, expressed in yeast
Protocol: (§4) Here, Suc is a protecting succinyl group, and MCA is a 4-methylcoumaryl-7-amide group; upon cleavage of the C-terminal side of phenylalanine, AMC (7-amino-4-methyl-coumarine) is released. By detecting the fluorescence of this AMC, the enzyme activity of chymase can be determined. The assay was performed using a 96-well plate (F16 Black Maxisorp Fluoronunc, manufactured by Nunc), with a reaction mixture volume of 100 μL, in solution C as a buffer solution. First, each nucleic acid was serially diluted to 0.0027-2 μM concentrations in solution C to obtain 50 μL solutions. After 10 μL of the 1 mM substrate prepared in solution C was added thereto, the plate was set to the microplate reader SpectraMax190 (manufactured by Molecular Devices Corporation), and incubated at 37° C. for 5 minutes. Separately, 0.05 μg (or 0.005 μg) of chymase (recombinant, manufactured by SIGMA) was diluted in solution C to obtain a 40 μL chymase solution, and incubated at 37° C. for 5 minutes. The chymase solution was added to the mixture of the nucleic acid and substrate to initiate an enzyme reaction. The final chymase concentration in the reaction mixture was 16.7 nM (or 1.67 nM), the final substrate concentration being 100 μM. The plate containing the reaction mixture was set to the microplate reader SpectraMax190 (manufactured by Molecular Devices Corporation), and examined for time-dependent changes in the fluorescence intensity at 37° C. for 5 minutes (or 30 minutes) (excitation wavelength 380 nm, detection wavelength 460 nm). A linear approximation of the increase in the fluorescence of the AMC released from the substrate by chymase activity was generated, and its slope was taken as the initial velocity […]. For control, samples were treated and analyzed in the same manner in two cases: use of a 30N or 40N (a nucleotide of 30 or 40 consecutive bases represented by N; N is A, G, C or T) nucleic acid pool (negative control), and use of chymostatin, a known chymotrypsin-like serine protease inhibitor (positive control). Taking the initial reaction velocity without the nucleic acid and inhibitor (V_0) as a 100% enzyme activity, the inhibitory rate of each test substance was calculated using the following equation: […]

chymase [6] = biological target: T2, chymase; test: inhibition; Suc-AAPF-MCA, 37 C, solution C; conditions: tags: recombinant, expressed in yeast, SIGMA
Protocol: as §4
(§5) The chymase inhibitory activity was measured in the same manner as in Example 3.

chymase [7] = biological target: T2, chymase; test: inhibition; angiotensin I; recombinant 0.361; conditions: tags: human skin mast cell, Calbiochem
Protocol: as §2, §3

chymase [8] = biological target: T2, chymase; test: SPR; stronger than 40N; solution A; conditions: tags: human skin mast cell, Calbiochem
Protocol: as §1

[9] = biological target: T3, chymase (native, human skin mast cell); test: inhibition; angiotensin I substrate, solution C, 37 C; recombinant 0.003 uM; conditions: tags: Calbiochem
Protocol: as §2, §3

chymase (recombinant) [10] = biological target: T1, chymase (recombinant); test: inhibition; Suc-AAPF-MCA, solution C, 37 C; SPR ++; conditions: tags: SIGMA, expressed in yeast
Protocol: Here, Suc is a protecting succinyl group, and MCA is a 4-methylcoumaryl-7-amide group; upon cleavage of the C-terminal side of phenylalanine, AMC (7-amino-4-methyl-coumarine) is released. By detecting the fluorescence of this AMC, the enzyme activity of chymase can be determined. The assay was performed using a 96-well plate (F16 Black Maxisorp Fluoronunc, manufactured by Nunc), with a reaction mixture volume of 100 μL, in solution C as a buffer solution. First, each nucleic acid was serially diluted to 0.0027-2 μM concentrations in solution C to obtain 50 μL solutions. After 10 μL of the 1 mM substrate prepared in solution C was added thereto, the plate was set to the microplate reader SpectraMax190 (manufactured by Molecular Devices Corporation), and incubated at 37° C. for 5 minutes. […] The plate containing the reaction mixture was set to the microplate reader SpectraMax190 (manufactured by Molecular Devices Corporation), and examined for time-dependent changes in the fluorescence intensity at 37° C. for 5 minutes (or 30 minutes) (excitation wavelength 380 nm, detection wavelength 460 nm). A linear approximation of the increase in the fluorescence of the AMC released from the substrate by chymase activity was generated, and its slope was taken as the initial velocity ($Vmax$). […]

chymase (recombinant) [11] = biological target: T1, chymase (recombinant); test: inhibition; SPR ++; conditions: tags: SIGMA, expressed in yeast; remark: listed apart in the source
Protocol: as §4, §5

[12] = biological target: T3, chymase (native, human skin mast cell); test: inhibition; angiotensin I substrate; recombinant 0.037 uM; conditions: tags: Calbiochem
Protocol: as §2, §3

chymase [13] = biological target: T2, chymase; test: inhibition; angiotensin I; recombinant 0.274; conditions: tags: human skin mast cell, Calbiochem
Protocol: as §2, §3

chymase [14] = biological target: T2, chymase; test: inhibition; angiotensin I; recombinant 0.022; conditions: tags: human skin mast cell, Calbiochem
Protocol: as §2, §3

B1: SEQ 39 (ssRNA)
RNA: GGGAGCAGGAGAGAGGUCAGAUGGUUACGGAUAGAGUUAAGGUAACGGUACGGCCUAUGCGUGCUAGUGUGA
modifications: 2'-F pyrimidines
binding result (chymase (recombinant) [1]): binds

B2: 56(18) (ssRNA)
RNA: GGGUUAGAUAGAGUUAAAAACCC
modifications: 2'-F U and C; PS 5-6
IC50 (chymase [2]): 174 nM

B3: 56(1) (ssRNA)
RNA: GGGUUAGAUAGAGUUAAAAACCC
modifications: 2'-F U and C; 5' and 3' idT
IC50 (chymase [3]): 404 nM

B4: SEQ 13 (ssRNA)
RNA: GGGACGGUAGGAAUUCCGCAACCAUCCCGUAACUAUGGUUAGAUAGAGUUAAAAACCAUAGAAGAGCGGCCGC
modifications: 2'-F pyrimidines
IC50 [4]: 74 nM | IC50 (chymase (recombinant) [5]): 58 nM

B5: 56(21) (ssRNA)
RNA: GGGUUAGAUAGAGUUAAAAACCC
modifications: 2'-F U and C; 2'-OMe 1-3,7,8,10,13,16-20
IC50 (chymase [6]): 45 nM | IC50 (chymase [7]): 722 nM

B6: SEQ 10 (ssRNA)
RNA: GGGACGGUAGGAAUUCCGCCGCCUAAAAAACGACGAUAUUACAGAAACGUCAAAUACAUAGAAGAGCGGCCGC
modifications: 2'-F U and C
binding result (chymase [8]): binds

B7: SEQ 4 (ssRNA)
RNA: GGGACGGUAGGAAUUCGUCCAUUCUACAGAUAGAGAUAAAGUAGAAUUUAACAAAACAUAGAAGAGCGGCCGC
modifications: 2'-F pyrimidines
IC50 [9]: 31 nM | IC50 (chymase (recombinant) [10]): 49 nM

B8: 72(2) (mixed)
mixed: GGGTTAGAUAGAGTUAAAAACCC
modifications: idT-G(M)G(M)G(M)ttAsG(M)aU(F)A(M)GAG(M)tU(F)A(M)A(M)A(M)A(M)A(M)ccc-idT (lower case DNA, s=PS)
IC50 (chymase (recombinant) [11]): 14 nM | IC50 [12]: 76 nM

B9: SEQ 65 (ssRNA)
RNA: GGCAGAUAGAGUUAAAGCC
modifications: 2'-F U and C
IC50 (chymase [13]): 878 nM

B10: SEQ 14 (ssRNA)
RNA: GGGACGGUAGGAAUUCUCGUUCCUGACAGCAUUUGAGAUAGAUUUAAACAAACGCACAUAGAAGAGCGGCCGC
modifications: 2'-F U and C
IC50 (chymase [14]): 63 nM
